Literature values in article PMC3277744.

Target: Bcl-XL (Homo sapiens) (UniProt Q07817)
Sequence (Q07817 whole entry): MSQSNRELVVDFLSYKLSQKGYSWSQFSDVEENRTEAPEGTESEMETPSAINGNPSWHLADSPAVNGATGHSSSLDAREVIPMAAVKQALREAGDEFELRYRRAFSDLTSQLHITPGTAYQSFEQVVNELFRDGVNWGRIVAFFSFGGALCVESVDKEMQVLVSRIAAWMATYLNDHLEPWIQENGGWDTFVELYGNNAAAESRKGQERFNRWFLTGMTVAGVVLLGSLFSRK

Substance: p53 (from UniProt P04637)
- Kd: 164 nM
